The record followed here is IntAct's records for PubMed 20048159.

B1: Ras-related protein Rab-9A (Homo sapiens), P51151 (parent)
chain: MAGKSSLFKVILLGDGGVGKSSLMNRYVTNKFDTQLFHTIGVEFLNKDLEVDGHFVTMQIWDTAGQERFRSLRTPFYRGSDCCLLTFSVDDSQSFQNLSNWKKEFIYYADVKEPESFPFVILGNKIDISERQVSTEEAQAWCRDNGDYPYFETSAKDATNVAAAFEEAVRRVLATEDRSDHLIQTDTVNLHRKPKPSSSCC
partner: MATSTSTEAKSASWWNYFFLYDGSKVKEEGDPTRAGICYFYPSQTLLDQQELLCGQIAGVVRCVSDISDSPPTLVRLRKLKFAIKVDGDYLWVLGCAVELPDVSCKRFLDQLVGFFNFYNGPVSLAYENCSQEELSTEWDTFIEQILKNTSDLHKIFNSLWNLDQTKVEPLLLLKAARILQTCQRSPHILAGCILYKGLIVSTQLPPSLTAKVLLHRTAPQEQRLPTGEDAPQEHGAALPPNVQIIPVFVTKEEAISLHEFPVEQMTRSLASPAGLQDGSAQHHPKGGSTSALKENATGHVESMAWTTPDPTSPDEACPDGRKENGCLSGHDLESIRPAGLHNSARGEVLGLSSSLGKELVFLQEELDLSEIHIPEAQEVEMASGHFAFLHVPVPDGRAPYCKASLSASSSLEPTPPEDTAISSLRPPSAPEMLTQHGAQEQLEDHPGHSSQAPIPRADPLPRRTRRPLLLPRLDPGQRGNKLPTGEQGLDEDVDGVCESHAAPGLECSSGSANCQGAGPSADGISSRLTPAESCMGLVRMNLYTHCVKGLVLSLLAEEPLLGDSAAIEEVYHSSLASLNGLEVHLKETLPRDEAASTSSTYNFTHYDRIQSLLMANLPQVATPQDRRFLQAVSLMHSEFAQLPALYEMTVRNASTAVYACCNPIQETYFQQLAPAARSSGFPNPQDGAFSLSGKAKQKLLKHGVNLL

The experiment covers variants of B1. The settings on record: with hps4_human HPS4, Q9NQG7.
In the case of I40A;Q66L, the “effect of a mutation on the interaction” value is reported as “disrupting interaction strength”.

As to V42A;Q66L, the “effect of a mutation on the interaction” value is on record as “with no effect”.

For Q66L;L72A, the “effect of a mutation on the interaction” value is “with no effect”.

For F44A;Q66L, the “effect of a mutation on the interaction” value was “disrupting interaction strength”.

As for Q66L;F76A, the “effect of a mutation on the interaction” value is on record as “with no effect”.

Consider Q66L, for which the “effect of a mutation on the interaction” value is “with no effect”.

Turning to Q35A;Q66L, the “effect of a mutation on the interaction” value was “with no effect”.

For the variant W61A;Q66L, the “effect of a mutation on the interaction” value is “disrupting interaction strength”.

For T34A;Q66L, the “effect of a mutation on the interaction” value is listed as “with no effect”.

As for H38A;Q66L, the “effect of a mutation on the interaction” value was “with no effect”.
